Reference: patent US20190231821A1 (published 2019)

Target: T1, human endogenous retrovirus-E (HERV-E); CT-RCC-1 peptide peptide on HLA-A11 (human)
T1 peptide: ATWLGSKTWK
Test: multimer staining

B1: HLA-A11 restricted HERV-E TCR (TCR, V domains shown)
Valpha: GIQVEQSPPDLILQEGANSTLRCNFSDSVNNLQWFHQNPWGQLINLFYIPSGTKQNGRLSATTVATERYSLLYISSSQTTDSGVYFCAVRGGADGLTFGKGTHLIIQP
Vbeta: DTEVTQTPKHLVMGMTNKKSLKCEQHMGHRAMYWYKQKAKKPPELMFVYSYEKLSINESVPSRFSPECPNSSLLNLHLHALQPEDSALYLCASSPPNEKLFFGSGTQLSVL
- binding result: recognises
